Measured values reported in patent US20030208060A1.
Each block holds one substance with its values, some of them ahead of it.

What was measured:
[1] = molecular target: T1, apoE- and lipoprotein lipase-independent TGRLP receptor (apoB48R) on the surface of THP-1 monocyte-macrophages (human) (UniProt Q0VD83); test: competition with 125I-tryp-VLDL2 for THP-1 macrophages; set as 100% by definition
T1 sequence: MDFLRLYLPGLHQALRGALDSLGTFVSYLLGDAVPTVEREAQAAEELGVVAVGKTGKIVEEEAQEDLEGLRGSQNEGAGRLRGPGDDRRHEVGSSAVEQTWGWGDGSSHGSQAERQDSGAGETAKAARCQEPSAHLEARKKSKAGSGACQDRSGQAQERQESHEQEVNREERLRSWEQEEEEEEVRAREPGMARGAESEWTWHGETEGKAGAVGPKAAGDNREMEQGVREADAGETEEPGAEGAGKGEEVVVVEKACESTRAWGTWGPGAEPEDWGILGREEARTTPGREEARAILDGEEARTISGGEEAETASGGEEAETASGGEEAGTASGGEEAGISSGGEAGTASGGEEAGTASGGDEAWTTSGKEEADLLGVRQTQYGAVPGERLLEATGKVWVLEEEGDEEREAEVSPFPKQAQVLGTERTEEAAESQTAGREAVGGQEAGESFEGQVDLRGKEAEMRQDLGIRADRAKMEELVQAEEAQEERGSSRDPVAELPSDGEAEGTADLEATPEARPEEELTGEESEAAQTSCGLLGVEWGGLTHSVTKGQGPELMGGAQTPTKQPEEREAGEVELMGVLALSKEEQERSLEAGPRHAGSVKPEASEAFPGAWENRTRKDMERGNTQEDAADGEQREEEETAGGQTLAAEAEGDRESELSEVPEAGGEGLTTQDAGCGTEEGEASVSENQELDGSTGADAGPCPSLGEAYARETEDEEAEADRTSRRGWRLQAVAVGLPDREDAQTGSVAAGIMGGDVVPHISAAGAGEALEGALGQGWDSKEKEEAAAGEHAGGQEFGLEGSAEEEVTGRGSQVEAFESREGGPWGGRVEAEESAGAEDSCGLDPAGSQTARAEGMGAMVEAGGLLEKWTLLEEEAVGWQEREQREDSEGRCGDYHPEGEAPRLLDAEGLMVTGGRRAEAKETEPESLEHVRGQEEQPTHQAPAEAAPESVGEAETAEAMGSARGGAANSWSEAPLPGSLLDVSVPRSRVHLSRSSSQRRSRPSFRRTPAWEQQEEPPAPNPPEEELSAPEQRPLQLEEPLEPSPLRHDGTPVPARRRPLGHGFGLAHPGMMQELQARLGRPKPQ

[2] = molecular target: T1, apoE- and lipoprotein lipase-independent TGRLP receptor (apoB48R) on the surface of THP-1 monocyte-macrophages (human); test: competition with 125I-tryp-VLDL1 for THP-1 macrophages; set as 100% by definition
[3] = molecular target: T1, apoE- and lipoprotein lipase-independent TGRLP receptor (apoB48R) on the surface of THP-1 monocyte-macrophages (human); test: competition with 125I-HTG-VLDL1 for THP-1 macrophages; set as 100% by definition
[4] = molecular target: MBP200 (membrane binding protein of ~200 kDa; human monocyte-macrophage apoB48 receptor, apoB48R) (human) (UniProt Q0VD83); test: quantitative ligand blot, Scatchard; conditions: scale: ng apo very low density lipoprotein/mg cell protein
[5] = molecular target: MBP235 (membrane binding protein of ~235 kDa: MBP200 plus noncovalently bound subunit(s) of ~35 kDa) (human); test: quantitative ligand blot, Scatchard; conditions: scale: ng apo very low density lipoprotein/mg cell protein
[6] = molecular target: MBP200R (reduced, ligand-binding form generated from MBP200 and MBP235 by 2-mercaptoethanol) (human) (UniProt Q0VD83); test: quantitative ligand blot after reduction, Scatchard; set-up: Bmax: unit not given here
[7] = molecular target: LDL receptor of cultured human skin fibroblasts (upregulated) (human) (UniProt P01130); test: binding of 125I-HTG-VLDL at 5 µg/ml to fibroblasts with induced LDL receptor, 4 °C
[8] = molecular target: T1, apoE- and lipoprotein lipase-independent TGRLP receptor (apoB48R) on the surface of THP-1 monocyte-macrophages (human); test: binding of 125I-HTG-VLDL at 5 µg/ml to THP-1 macrophages, 4 °C
[9] = molecular target: T1, apoE- and lipoprotein lipase-independent TGRLP receptor (apoB48R) on the surface of THP-1 monocyte-macrophages (human); test: competition with 125I-tryp-VLDL1 for THP-1 macrophages, 4 °C, lactoferrin 100 µg/ml
[10] = molecular target: T1, apoE- and lipoprotein lipase-independent TGRLP receptor (apoB48R) on the surface of THP-1 monocyte-macrophages (human); test: competition with 125I-HTG-VLDL1 for THP-1 macrophages, 4 °C, lactoferrin 500 µg/ml
[11] = molecular target: hypertriglyceridemic very low density lipoprotein Sf100-400 (HTG-VLDL) (human) (UniProt P04114); test: competitive ligand blot: binding of biotinylated HTG-VLDL to MBP200 and MBP235, control IgG 400 µg/ml
[12] = molecular target: T1, apoE- and lipoprotein lipase-independent TGRLP receptor (apoB48R) on the surface of THP-1 monocyte-macrophages (human); test: specific binding of the 125I-lipoprotein to THP-1 macrophages, 4 °C

Chain of lactoferrin (P02788 20-710): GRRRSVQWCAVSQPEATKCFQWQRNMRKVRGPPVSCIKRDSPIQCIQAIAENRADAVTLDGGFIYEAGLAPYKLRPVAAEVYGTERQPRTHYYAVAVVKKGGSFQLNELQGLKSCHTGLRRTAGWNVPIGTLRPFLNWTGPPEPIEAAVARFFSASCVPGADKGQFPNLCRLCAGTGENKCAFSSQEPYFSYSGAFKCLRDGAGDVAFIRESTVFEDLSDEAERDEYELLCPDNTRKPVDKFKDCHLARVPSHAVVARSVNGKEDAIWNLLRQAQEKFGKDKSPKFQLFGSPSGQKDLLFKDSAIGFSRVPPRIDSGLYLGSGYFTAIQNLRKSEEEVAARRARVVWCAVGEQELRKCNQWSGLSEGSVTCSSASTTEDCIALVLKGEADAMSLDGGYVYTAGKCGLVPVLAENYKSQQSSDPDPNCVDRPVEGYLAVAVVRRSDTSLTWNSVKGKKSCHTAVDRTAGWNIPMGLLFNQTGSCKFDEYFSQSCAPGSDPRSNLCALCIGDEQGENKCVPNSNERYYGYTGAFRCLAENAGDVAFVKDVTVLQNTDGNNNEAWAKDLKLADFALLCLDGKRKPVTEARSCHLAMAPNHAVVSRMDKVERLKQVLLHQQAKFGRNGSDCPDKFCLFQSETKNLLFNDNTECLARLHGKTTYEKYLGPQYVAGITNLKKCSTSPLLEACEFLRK
Chain of LDL receptor of cultured human skin fibroblasts (upregulated) (human) (P01130 22-860): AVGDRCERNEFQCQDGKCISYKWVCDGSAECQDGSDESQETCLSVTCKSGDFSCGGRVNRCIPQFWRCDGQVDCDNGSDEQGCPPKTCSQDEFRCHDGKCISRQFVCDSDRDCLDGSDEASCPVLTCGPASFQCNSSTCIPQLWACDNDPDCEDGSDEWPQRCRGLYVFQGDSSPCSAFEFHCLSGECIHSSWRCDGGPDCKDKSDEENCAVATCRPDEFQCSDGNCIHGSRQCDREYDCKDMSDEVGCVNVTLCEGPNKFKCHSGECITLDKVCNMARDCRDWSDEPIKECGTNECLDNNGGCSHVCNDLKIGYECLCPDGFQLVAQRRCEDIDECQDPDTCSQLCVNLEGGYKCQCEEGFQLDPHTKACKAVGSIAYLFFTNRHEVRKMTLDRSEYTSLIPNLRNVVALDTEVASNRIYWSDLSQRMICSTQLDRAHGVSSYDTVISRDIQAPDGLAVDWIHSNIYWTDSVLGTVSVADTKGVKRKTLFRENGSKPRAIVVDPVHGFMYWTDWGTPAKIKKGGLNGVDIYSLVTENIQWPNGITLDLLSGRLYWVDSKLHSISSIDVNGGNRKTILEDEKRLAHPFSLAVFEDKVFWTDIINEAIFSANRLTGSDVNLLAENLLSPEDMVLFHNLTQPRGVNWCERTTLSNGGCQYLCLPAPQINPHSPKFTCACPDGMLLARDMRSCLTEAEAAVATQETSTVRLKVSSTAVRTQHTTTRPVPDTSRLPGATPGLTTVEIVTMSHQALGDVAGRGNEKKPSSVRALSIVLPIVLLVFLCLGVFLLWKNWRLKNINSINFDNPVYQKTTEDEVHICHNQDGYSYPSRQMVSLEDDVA

- Bmax [4]: 96
- Bmax [5]: 66
- Bmax [6]: 160
- Kd [6]: 1.4 µg/mL
- specific binding activity (ng/mg fibroblast cell protein) [7]: 237
- specific binding activity (ng/mg THP-1 cell protein) [8]: 24
Substance: hypertriglyceridemic very low density lipoprotein Sf100-400 (HTG-VLDL) (from UniProt P04114 28-4563; P04114 28-2179; P02649 19-317; P02656 21-99)

- Percent Inhibition [9]: 4%
- Percent Inhibition [10]: 5%
Substance: lactoferrin

- specific binding (0% inhibition) (fmol/mg cell protein) [12]: 20
Substance: trypsinized VLDL2 (tryp-VLDL2) (from UniProt P04114 28-4563)

The remaining lines, values behind:

Substance: Unlabeled VLDL (20x), P04114 28-4563
- Percent Inhibition [1]: 100%
- Percent Inhibition [2]: 100%
- Percent Inhibition [3]: 100%

Substance: preimmune IgG (rabbit 1325) (antibody)
- percent of binding blocked [11]: 25%

Substance: trypsinized VLDL Sf100-400, devoid of apoE (tryp-VLDL) (from UniProt P04114 28-4563)
- specific binding (0% inhibition) (fmol/mg cell protein) [12]: 140
